Measurements reported in the supplement of paper PMC10567573.

B1: ZNF24 (parent)
chain: YGETCFPKGRFERKRNPSRKKQHI

Variants of: B1
Assay: protein stability index of a GFP-peptide fusion (GPS, HEK-293T) (PSI 1-6); higher = more stable
Conditions: c terminus: a fixed tail appended
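Further: lentivirally expressed fusions sorted by FACS into six bins by GFP to DsRed ratio, PSI derived from sequencing read proportions per bin multiplied by bin number.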

Protein stability index, by site and new letter:
E12: L 3.59 | W 2.3 | I 2.34 | R 3.88 | G 3.16 | D 3.26 | P 3.11 | F 2 | T 3.16 | V 2.16 | N 3.1 | S 2.85 | Q 2.3 | C 2.8 | M 1.87 | A 2.49 | Y 2.46 | H 3.09 | K 2.91
F6: S 3.73 | Q 4.02 | R 3.7 | W 1.77 | Y 4.74 | V 3.82 | T 4.36
G9: L 2.12 | V 1.72 | K 3.15 | Y 3.75 | R 2.85 | F 2.29 | S 3 | Q 3.28 | P 2.41 | T 2.7 | N 3.06 | W 2.15 | M 2.18 | E 3.39 | H 2.72 | I 1.94 | D 2.71 | C 1.98 | A 2.11
R15: H 2.84 | M 3.17 | D 3.17 | L 2.76 | G 2.75 | C 2.65 | A 2.76 | E 2.93 | F 2.83 | N 3.2 | I 2.28 | P 3.15 | K 2.03
P7: K 3.35 | T 3.02 | V 3.12 | M 3.07 | C 2.81 | L 1.9 | Y 1.76 | H 2.43 | R 2.93 | N 3.69 | A 2.77 | D 3.5 | E 3.63 | Q 2.26 | G 2.82 | I 2.5 | W 2.57 | S 2.28
K14: V 2.42 | C 2.41 | F 2.55 | I 2.96 | E 3.65 | R 2.8 | P 3.18 | M 2.7 | L 2.82 | G 2.92 | Q 3.1 | S 2.65 | Y 2.89 | W 2.34 | T 2.27 | N 3.48 | H 2.51 | A 3.21 | D 3.63
R13: M 2.15 | P 3 | E 3.1 | A 2.96 | H 3.21 | W 1.75 | T 2.3 | Q 2.61 | N 2.87 | V 2.19 | F 2.43 | I 2.32 | G 2.22 | L 2.58 | D 2.93 | S 3.14 | C 2.33 | K 2.9 | Y 2.25
R10: T 3.23 | Y 2.72 | S 2.82 | V 2.24 | E 3.07 | H 2.55 | G 3.44 | M 2.9 | I 2.92 | F 2.83 | L 2.67 | N 2.93 | K 2.71 | C 2.66 | D 3.66 | P 2.56 | W 1.71 | A 2.6 | Q 3.38
F11: N 3.33 | G 3.32 | V 2.59 | L 2.35 | Y 3.32 | A 3.43 | C 2.58 | P 2.97 | S 3.18 | K 3.13 | H 3.05 | M 2.55 | W 2.2 | E 3.16 | T 3.28 | D 2.99 | I 2.59 | Q 3.41
K8: V 2.36 | E 2.96 | N 1.93 | P 2.11 | I 2.49 | D 3.56 | S 2.42 | H 2.1 | T 2.49 | Q 2.13 | R 2.88 | Y 2.74 | C 1.68 | G 2.93 | L 2.07 | A 2.17
